Data: US20260022175A1 (Chugai, published 2026)

T1: human FcγRIIa H extracellular domain (human, UniProt P12318 34-217)
T1 construct: extracellular domain; also called hFcγR IIa H
T1 sequence (looked up): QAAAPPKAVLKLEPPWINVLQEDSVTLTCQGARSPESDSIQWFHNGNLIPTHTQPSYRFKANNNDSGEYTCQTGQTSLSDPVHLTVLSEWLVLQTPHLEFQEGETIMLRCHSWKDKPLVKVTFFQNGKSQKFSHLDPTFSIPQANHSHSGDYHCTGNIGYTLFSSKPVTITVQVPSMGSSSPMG

T2: human FcγRIIa R extracellular domain (human, UniProt P12318 34-217)
T2 construct: extracellular domain; also called hFcγR IIa R
T2 sequence (looked up): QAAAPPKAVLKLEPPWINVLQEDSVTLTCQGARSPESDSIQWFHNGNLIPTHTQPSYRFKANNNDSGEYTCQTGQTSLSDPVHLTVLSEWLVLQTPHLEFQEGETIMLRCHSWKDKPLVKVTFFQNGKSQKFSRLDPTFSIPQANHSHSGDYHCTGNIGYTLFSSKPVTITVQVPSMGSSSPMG

T3: human FcγRIIb extracellular domain (human, UniProt P31994 43-217)
T3 construct: extracellular domain; also called hFcγR IIb
T3 sequence (looked up): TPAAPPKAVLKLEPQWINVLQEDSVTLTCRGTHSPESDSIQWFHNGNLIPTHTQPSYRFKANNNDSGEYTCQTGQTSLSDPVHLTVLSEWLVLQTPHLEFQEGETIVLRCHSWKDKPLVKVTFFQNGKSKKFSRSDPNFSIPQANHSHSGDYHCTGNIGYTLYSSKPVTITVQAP

T4: hFcγRIIaH on hFcγRIIaH-expressing Jurkat cells (human, UniProt P12318 34-317)
T4 sequence (looked up): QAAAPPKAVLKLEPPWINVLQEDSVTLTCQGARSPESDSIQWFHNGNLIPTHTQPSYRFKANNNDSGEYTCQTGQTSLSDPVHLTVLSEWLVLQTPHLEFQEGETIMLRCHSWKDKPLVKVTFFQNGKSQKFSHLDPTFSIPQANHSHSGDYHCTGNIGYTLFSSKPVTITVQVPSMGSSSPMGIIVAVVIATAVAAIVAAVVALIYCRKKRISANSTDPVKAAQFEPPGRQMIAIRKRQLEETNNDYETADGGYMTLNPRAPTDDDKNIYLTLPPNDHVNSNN


Key:
[1] = target: T5, human FcγRIIIa V extracellular domain (human, UniProt P08637 17-208); assay: SPR Biacore 8K+; KD for FcγRIIb divided by KD for this FcγR;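 further: antibodies captured on an anti-human Fab kappa SA chip with soluble human FcγR ectodomains flowed over, FcγRIIb KD from steady-state fit, other FcγR KD from Langmuir model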
T5 construct: extracellular domain; also called hFcγR IIIa V
Description: (§1) The interaction between the produced antibodies and human FcγRs was analyzed using Biacore 8K+ by the method below. For the running buffer, 50 mM Na-Phosphate, 150 mM NaCl, and 0.05% Tween20 (pH 7.4) was used, and measurement was performed at 25° C. The sensor chip used was a Series S SA chip (GE Healthcare) onto which CaptureSelect Human Fab-kappa Kinetics Biotin Conjugate (Thermo Fisher Scientific) was immobilized. An antibody of interest was captured onto this chip, and each FcγR diluted with the running buffer was allowed to interact with it. The chip was regenerated using 10 mM Glycine-HCl (pH 1.5), and repeatedly used to capture antibodies and perform measurement. The dissociation constants KD (mol/L) of each antibody for FcγRs were calculated using Biacore Insight Evaluation Software, with a steady state affinity model for the dissociation constant for FcγRIIb and a 1:1 Langmuir binding model for the dissociation constants for the other FcγRs (Table 48).

[2] = target: T1, human FcγRIIa H extracellular domain; assay: as above
Description: as §1

[3] = target: T2, human FcγRIIa R extracellular domain; assay: as above
Description: as §1

[4] = target: T6, human FcγRIIIa F extracellular domain (human, UniProt P08637 17-208); assay: as above
T6 construct: extracellular domain; also called hFcγR IIIa F
Description: as §1

[5] = target: T3, human FcγRIIb extracellular domain; assay: SPR Biacore 8K+, antibody captured, FcγR as analyte, steady state affinity model
[6] = target: hFcγRIIIaV on hFcγRIIIaV-expressing Jurkat cells (human, UniProt P08637 17-254); assay: cell-based or functional assay
[7] = target: T4, hFcγRIIaH on hFcγRIIaH-expressing …; assay: cell-based or functional assay
[8] = target: T5, human FcγRIIIa V extracellular domain; assay: SPR Biacore 8K+, antibody captured, FcγR as analyte, 1:1 Langmuir model;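 further: antibodies captured on a streptavidin chip through a biotinylated anti-human Fab kappa reagent, with FcγR extracellular domains injected in pH 7.4 phosphate buffer at 25 °C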
[9] = target: T1, human FcγRIIa H extracellular domain; assay: as above
[10] = target: T2, human FcγRIIa R extracellular domain; assay: as above
[11] = target: T6, human FcγRIIIa F extracellular domain; assay: as above
[12] = target: T7, human FcγRIa extracellular domain (human, UniProt P12314 16-292); assay: as above
T7 construct: extracellular domain; also called hFcγR Ia; hFcγRIa

[13] = target: T5, human FcγRIIIa V extracellular domain; assay: SPR Biacore 8K+; KD of G1d divided by KD of this antibody;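 further: antibodies captured on an anti-Fab-kappa streptavidin chip, soluble FcγR ectodomains flowed over, KD by steady-state fit for FcγRIIb and Langmuir kinetic model for the other receptors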
[14] = target: T1, human FcγRIIa H extracellular domain; assay: as above
[15] = target: T2, human FcγRIIa R extracellular domain; assay: as above
[16] = target: T3, human FcγRIIb extracellular domain; assay: as above
[17] = target: T6, human FcγRIIIa F extracellular domain; assay: as above
[18] = target: T7, human FcγRIa extracellular domain; assay: as above

T7 sequence (P12314 16-292): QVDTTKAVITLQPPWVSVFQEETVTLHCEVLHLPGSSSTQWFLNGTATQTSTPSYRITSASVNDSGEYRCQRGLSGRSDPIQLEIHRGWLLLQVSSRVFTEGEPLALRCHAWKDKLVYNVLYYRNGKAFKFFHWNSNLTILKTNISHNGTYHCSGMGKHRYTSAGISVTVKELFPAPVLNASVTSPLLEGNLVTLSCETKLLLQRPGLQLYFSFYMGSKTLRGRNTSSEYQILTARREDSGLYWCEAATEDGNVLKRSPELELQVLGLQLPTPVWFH
T5 sequence (P08637 17-208 F176V limits assumed): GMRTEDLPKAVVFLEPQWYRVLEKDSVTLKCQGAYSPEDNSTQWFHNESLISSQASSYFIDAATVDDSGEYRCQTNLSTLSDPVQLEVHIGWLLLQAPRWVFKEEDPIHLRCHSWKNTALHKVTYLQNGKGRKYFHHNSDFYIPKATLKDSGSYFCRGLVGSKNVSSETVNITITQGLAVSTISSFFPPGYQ
T6 sequence (P08637 17-208): as the sequence (P08637 17-208 F176V limits assumed) above, with V160F counted along it
hFcγRIIIaV on hFcγRIIIaV-expressing Jurkat cells, sequence (P08637 17-254, form in doubt): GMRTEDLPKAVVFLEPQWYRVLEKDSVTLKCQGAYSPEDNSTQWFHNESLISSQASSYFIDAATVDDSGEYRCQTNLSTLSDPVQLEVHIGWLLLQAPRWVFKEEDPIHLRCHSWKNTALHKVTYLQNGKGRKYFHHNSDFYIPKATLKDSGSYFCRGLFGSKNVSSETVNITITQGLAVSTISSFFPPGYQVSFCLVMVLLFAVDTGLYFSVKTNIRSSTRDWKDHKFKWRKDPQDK

A/I ratio (KD for FcγRIIb divided by KD for each FcγR) [1]	A/I ratio (KD for FcγRIIb divided by KD for each FcγR) [2]	A/I ratio (KD for FcγRIIb divided by KD for each FcγR) [3]	A/I ratio (KD for FcγRIIb divided by KD for each FcγR) [4]	Kd [5] [nM]	EC50 value (hFcγRIIIaV ADCC Reporter Bioassay, Hepa1-6/hEREG target cells) [6] [µg/mL]	EC50 value (hFcγRIIaH ADCP Reporter Bioassay, Hepa1-6/hEREG target cells) [7] [µg/mL]	Kd [8] [nM]	Kd [9] [nM]	Kd [10] [nM]	Kd [11] [nM]	Kd [12] [nM]	Relative value to KD between G1d and hFcgRs [13]	Relative value to KD between G1d and hFcgRs [14]	Relative value to KD between G1d and hFcgRs [15]	Relative value to KD between G1d and hFcgRs [16]	Relative value to KD between G1d and hFcgRs [17]	Relative value to KD between G1d and hFcgRs [18]	Binder
264	5.8	13	68.4	440	0.00135	0.0218	1.67	76.4	33.8	6.43	0.0264	215	14.7	49	22.8	460	3.4	H240-Kn120/L73-k0//H240-Hl068/L73-k0 (antibody, human IgG1, kappa, also called EGL-ART2; ART2) heavy 1: QDQLVQSGAEVKKPGASVKVSCKASGFNIKDTYIQWVRQAPGQGLEWMGRIDPLRKQTKYREKFEGRVTITADTSTNTAYMELSSLRSEDTAVYYCVRSGREFDYWGQGTLVTVSSASTKGPSVFPLAPSSKSTSGGTAALGCLVKDYFPEPVTVSWNSGALTSGVHTFPAVLQSSGLYSLSSVVTVPSSSLGTQTYICNVNHKPSNTKVDKKVEPKSCDKTHTCPPCPAPEYYWGPMVFLFPPKPKDTLMISRTPEVTCVVVDVSDEDPEVKFNWYVDGVEVHNAKTKPREEQYNATYRVVSVLTVLHQDWLNGKEYKCKVSNKDLPAPIEKTISKAKGQPREPQVCTLPPSRDELTKNQVSLWCLVKGFYPSDIAVEWESNGQPENNYKTTPPVLDSDGSFFLYSKLTVDKSRWQQGNVFSCSVMHEALHNHYTQKSLSLSP heavy 2: QDQLVQSGAEVKKPGASVKVSCKASGFNIKDTYIQWVRQAPGQGLEWMGRIDPLRKQTKYREKFEGRVTITADTSTNTAYMELSSLRSEDTAVYYCVRSGREFDYWGQGTLVTVSSASTKGPSVFPLAPSSKSTSGGTAALGCLVKDYFPEPVTVSWNSGALTSGVHTFPAVLQSSGLYSLSSVVTVPSSSLGTQTYICNVNHKPSNTKVDKKVEPKSCDKTHTCPPCPAPELLGGPSVFLFPPKPKDTLMISRTPEVTCVVVDVSHEEPEVKFNWYVDGVEVHNAKTKPREEQYNSTYRVVSVLTVLHQDWLNGKEYKCKVSNDALPKPIEETISKAKGQPREPQVYTLPPSRCELTKNQVSLSCAVKGFYPSDIAVEWESNGQPENNYKTTPPVLDSDGSFFLVSKLTVDKSRWQQGNVFSCSVMHEALHNHYTQKSLSLSP light: DIQMTQSPSSLSASVGDRVTITCRASQDIHKYIAWYQQKPGQAPRLLIQYTSTLQPGVPSRFSGSGSGTDYTFTISSLQPEDIATYYCLQYEQLRTFGGGTKVEIKRTVAAPSVFIFPPSDEQLKSGTASVVCLLNNFYPREAKVQWKVDNALQSGNSQESVTEQDSKDSTYSLSSTLTLSKADYEKHKVYACEVTHQGLSSPVTKSFNRGEC
11300	47.4	12.4	4950	12500	0.000716	0.0353	1.11	264	1010	2.53	0.0302	323	4.3	1.6	0.8	1170	3	H240-Kn125/L73-k0//H240-Hl076/L73-k0 (antibody, human IgG1, kappa, Anti-human Epiregulin heterodimerized IgG1 Fc variant; also called EGL-ART1; ART1) heavy 1: QDQLVQSGAEVKKPGASVKVSCKASGFNIKDTYIQWVRQAPGQGLEWMGRIDPLRKQTKYREKFEGRVTITADTSTNTAYMELSSLRSEDTAVYYCVRSGREFDYWGQGTLVTVSSASTKGPSVFPLAPSSKSTSGGTAALGCLVKDYFPEPVTVSWNSGALTSGVHTFPAVLQSSGLYSLSSVVTVPSSSLGTQTYICNVNHKPSNTKVDKKVEPKSCDKTHTCPPCPAPEYQWGPMVFLFPPKPKDTLMISRTPEVTCVVVDVSDEEPEVKFNWYVDGVEVHNAKTKPREEQYNATYRVVSVLTVLHQDWLNGKEYKCKVSNKALPAPIEKTISKAKGQPREPQVCTLPPSRDELTKNQVSLWCLVKGFYPSDIAVEWESNGQPENNYKTTPPVLDSDGSFFLYSKLTVDKSRWQQGNVFSCSVMHEALHNHYTQKSLSLSP heavy 2: QDQLVQSGAEVKKPGASVKVSCKASGFNIKDTYIQWVRQAPGQGLEWMGRIDPLRKQTKYREKFEGRVTITADTSTNTAYMELSSLRSEDTAVYYCVRSGREFDYWGQGTLVTVSSASTKGPSVFPLAPSSKSTSGGTAALGCLVKDYFPEPVTVSWNSGALTSGVHTFPAVLQSSGLYSLSSVVTVPSSSLGTQTYICNVNHKPSNTKVDKKVEPKSCDKTHTCPPCPAPELLGGPSVFLFPPKPKDTLMISRTPEVTCVVVDVSHEEPEVKFNWYVDGVEVHNAKTKPREEQYNSTYRVVSVLTVLHQDWLNGKEYKCKVSNDALPMPIEETISKAKGQPREPQVYTLPPSRCELTKNQVSLSCAVKGFYPSDIAVEWESNGQPENNYKTTPPVLDSDGSFFLVSKLTVDKSRWQQGNVFSCSVMHEALHNHYTQKSLSLSP light: DIQMTQSPSSLSASVGDRVTITCRASQDIHKYIAWYQQKPGQAPRLLIQYTSTLQPGVPSRFSGSGSGTDYTFTISSLQPEDIATYYCLQYEQLRTFGGGTKVEIKRTVAAPSVFIFPPSDEQLKSGTASVVCLLNNFYPREAKVQWKVDNALQSGNSQESVTEQDSKDSTYSLSSTLTLSKADYEKHKVYACEVTHQGLSSPVTKSFNRGEC
